# Substitutions are numbered along the chain they refer to.
# B1: VRC07-523LS.v14 (antibody, V domains shown)
# VH: QVRLSQSGGQMKKPGDSMRISCDASGYEFINCPINWIRLAPGKRPEWMGWMKPRFGAVSYARQLQGRVTMTRQLSQDPDDPDWGTAFLELRSLTSDDTAVYFCTRGKYCTARDYYNWDFEHWGQGTPVTVSS
# VL: LTQSPGTLSLSPGETAIISCDTSQYGSLAWYQQRPGQAPRLVIYSGSTRAAGIPDRFSGSRWGPDYNLTISNLESGDFGVYYCQQYEFFGQGTKVQVDI
# B2: VRC07-523LS.v32 (antibody, V domains shown)
# VH: B1 VH with D23S, K107S
# VL: B1 VL with D21S
# B3: N6LS.C1 (antibody, V domains shown)
# VH: RAHLVQSGTAMKKPGASVRVSCQTSGYTFTAHILFWFRQAPGRGLEWVGWIKPQYGAVNFGGGFRDRVTLTRQLSQDPDDPDWGIAYMDIDGLKPDDTAVYYCARDRSYGDSSWALDAWGQGTTVVVSA
# VL: YIHVTQSPSSLSVSIGDDVTINCQTSQGVGSDLHWYQHKPGRAPKLLIHHTSSVEDGVPSRFSGSGFHTSFNLTISDLQADDIATYYCQVLQFFGRGSRLHIKR
# B4: N6LS.C30 (antibody, V domains shown)
# VH: B3 VH with K13E, D91R
# VL: B3 VL with D18E
# Target: HIV-1 Env of the 208-virus panel (Env-pseudoviruses)
# Assay: cell-based or functional assay
Binder,"neutralization of Env-pseudoviruses on TZM-bl cells, share of the panel at IC80 less than 1 µg/ml (% of the 208-virus panel)","neutralization of Env-pseudoviruses on TZM-bl cells, share of the panel at IC80 <1 µg/ml (% of 208 viruses)","neutralization of Env-pseudoviruses on TZM-bl cells, share of the panel at IC80<1 µg/ml (% of viruses (208-virus panel))"
B1,92,,
B2,92,,
B3,,> 73,73
B4,,> 73,77

# Source: US20250197483A1
